# Marks after values point to notes of the source that are not given here.
# Assays:
# Format in all cases: in vivo, human
# [1] = tested on: Patients with Type 2 Diabetes Insufficiently Controlled with Insulin Glargine with or without Metformin; assay: HbA1c, randomized open-label active-controlled 3-arm 26-week study (GetGoal-Duo2)
# Text: (§1) FIG. 6—Graphical study design. ^1 Insulin glargine should be injected subcutaneously once daily at dinner or breakfast time (according to patient's/investigators' preference). […] Meal used for insulin glulisine dosing should remain the same throughout the 26-week treatment period. ^4 Injection of insulin glulisine prior to breakfast, lunch and dinner.
# (§2) Co-primary endpoints at 26 weeks were (1) non-inferiority (95% CI upper bound <0.4%) in HbA1c reduction with LIXI vs GLU-1 and (2) for LIXI vs GLU-3, either non-inferiority in HbA1c reduction (2a) OR superiority (one-sided α≤0.025) in body weight change (2b). FPG, PPG, IG dose, composite outcomes, AEs, and hypoglycemia were assessed.
# [2] = tested on: Patients with Type 2 Diabetes Insufficiently Controlled with Insulin Glargine with or without Metformin; assay: 2-h PPG post test meal, 26-week study; conditions: subset of mITT treated before breakfast
# Description: as §2
# [3] = tested on: Patients with Type 2 Diabetes Insufficiently Controlled with Insulin Glargine with or without Metformin; assay: Insulin dose (insulin glargine, insulin glulisine), 26-week study
# Text: as §1, §2
# [4] = tested on: Patients with Type 2 Diabetes Insufficiently Controlled with Insulin Glargine with or without Metformin; assay: Treatment-emergent adverse events, 26-week study
# Text: as §1, §2
# [5] = Baseline (before IMP), mITT population
# [6] = Week 26 (LOCF), mITT population
# [7] = Safety population, PT ≥ 3% table
substance,measurement,setting,value
"Insulin Glulisine QD: insulin glulisine once daily, added to insulin glargine ± metformin (comparator arm)","HbA1c change to Week 26, LS Mean difference (SE) of Lixisenatide vs. the labelled insulin glulisine arm","[1]; ANCOVA, mITT population",−0.05 (0.059) %
same,"HbA1c, Change from baseline to Week 26 (LOCF), LS Mean (SE)","[1]; ANCOVA, mITT population",−0.58 (0.054) %
same,"HbA1c, BL (end run-in) mean ± SD","[1]; BL (end run-in), mITT",7.7 ± 0.6%
same,"HbA1c, Baseline, Mean (SD)",[1]; [5],7.72 (0.58) %
same,"HbA1c, Baseline, Median",[1]; [5],7.70%
same,"HbA1c, Screening (start run-in) mean ± SD","[1]; Screening (start run-in), mITT",8.5 ± 0.7%
same,"HbA1c, Week 26 (LOCF), Mean (SD)",[1]; [6],7.21 (0.79) %
same,"HbA1c, Week 26 (LOCF), Median",[1]; [6],7.10%
same,"HbA1c, Week 26 (LOCF) mean ± SD","[1]; Week 26 (LOCF), mITT, Example 2 table",7.2 ± 0.8%
same,"HbA1c, LS mean treatment difference (lixisenatide vs the labelled arm), co-primary endpoint","[1]; Week 26, mITT, Example 2 table",−0.1^† %
same,"HbA1c, LS mean ± SE change from BL","[1]; Week 26, mITT, Example 2 table",−0.6 ± 0.1%
same,"HbA1c, Change from baseline to Week 26 (LOCF), Mean (SD)",[1]; mITT population,−0.51 (0.80) %
same,"HbA1c, Change from baseline to Week 26 (LOCF), Median",[1]; mITT population,−0.50%
same,"2-h PPG post test meal, BL (end run-in) mean ± SD",[2]; BL,249 ± 63 mg/dL
same,"2-h PPG post test meal, Week 26 (LOCF) mean ± SD",[2]; Week 26 (LOCF),220 ± 60 mg/dL
same,"2-h PPG post test meal, LS mean treatment difference (lixisenatide vs the labelled arm)",[2]; Week 26,-37 mg/dL
same,"2-h PPG post test meal, LS mean ± SE change from BL",[2]; Week 26,-28 ± 11 mg/dL
same,"Insulin glargine dose change to Week 26, LS Mean difference (SE) of Lixisenatide vs. the labelled insulin glulisine arm","[3]; ANCOVA, mITT population",0.76 (1.104) U
same,"Insulin glargine dose, Change from baseline to Week 26 (LOCF), LS Mean (SE)","[3]; ANCOVA, mITT population",−0.06 (0.999) U
same,"Insulin Glargine dose, BL (end run-in) mean ± SD","[3]; BL (end run-in), mITT",65 ± 32 U/day
same,"Insulin glargine dose, Baseline, Mean (SD)",[3]; [5],64.79 (32.09) U
same,"Insulin glargine dose, Baseline, Median",[3]; [5],58.00 U
same,"Insulin Glargine dose, Screening (start run-in) mean ± SD","[3]; Screening (start run-in), mITT",40 ± 22 U/day
same,"Insulin Glargine dose, Week 26 (LOCF) mean ± SD","[3]; Week 26 (LOCF), mITT",64 ± 36 U/day
same,"Insulin glargine dose, Week 26 (LOCF), Mean (SD)",[3]; [6],63.89 (35.67) U
same,"Insulin glargine dose, Week 26 (LOCF), Median",[3]; [6],54.00 U
same,"Insulin Glargine dose, LS mean + SE change from BL","[3]; Week 26, mITT",−0.1 ± 1.0 U/day
same,"Insulin Glargine dose, LS mean treatment difference (lixisenatide vs the labelled arm)","[3]; Week 26, mITT",0.8 U/day
same,"Insulin glargine dose, Change from baseline to Week 26 (LOCF), Mean (SD)",[3]; mITT population,−0.91 (13.41) U
same,"Insulin glargine dose, Change from baseline to Week 26 (LOCF), Median",[3]; mITT population,−1.33 U
same,Patients with any TEAE leading to death,[4]; Safety population,0 n (%)
same,Patients with treatment emergent SAE: Accidental overdose,[4]; Safety population,2 (0.7%) n (%)
same,Patients with TEAE: Accidental overdose,[4]; [7],13 (4.3%) n (%)
same,Patients with TEAE: Headache,[4]; [7],8 (2.7%) n (%)
same,Patients with TEAE: Hypoglycaemia,[4]; [7],140 (46.5%) n (%)
same,Patients with TEAE: Infections and infestations (SOC),[4]; [7],70 (23.3%) n (%)
same,Patients with TEAE: Influenza,[4]; [7],8 (2.7%) n (%)
same,"Patients with TEAE: Injury, poisoning and procedural complications (SOC)",[4]; [7],20 (6.6%) n (%)
same,Patients with TEAE: Investigations (SOC),[4]; [7],76 (25.2%) n (%)
same,Patients with TEAE: Metabolism and nutrition disorders (SOC),[4]; [7],143 (47.5%) n (%)
same,Adjudicated by PSAC: Acute on chronic pancreatitis,[4]; in vivo,0 n (%)
same,Adjudicated by PSAC: Acute pancreatitis,[4]; in vivo,0 n (%)
same,Adjudicated by PSAC: Chronic pancreatitis,[4]; in vivo,0 n (%)
same,Adjudicated by PSAC: Unknown pancreatitis,[4]; in vivo,0 n (%)
same,Gastrointestinal AEs: Diarrhea,[4]; in vivo,10 (3) n (%)
same,Gastrointestinal AEs: Nausea,[4]; in vivo,5 (2) n (%)
same,Gastrointestinal AEs: Vomiting,[4]; in vivo,5 (2) n (%)
same,Patients with TEAE on the specific adverse event form for increased calcitonin (>=20 ng/L): Any,[4]; in vivo,0 n (%)
same,Patients with TEAE on the specific adverse event form for increased calcitonin (>=20 ng/L): Blood calcitonin increased,[4]; in vivo,0 n (%)
same,Patients with TEAE: Any class,[4]; in vivo,222 (73.8%) n (%)
same,Patients with TEAE: Blood glucose decreased,[4]; in vivo,67 (22.3%) n (%)
same,Patients with TEAE: Diarrhoea,[4]; in vivo,10 (3.3%) n (%)
same,Patients with TEAE: Gastrointestinal disorders (SOC),[4]; in vivo,26 (8.6%) n (%)
same,Patients with TEAE: Nasopharyngitis,[4]; in vivo,21 (7.0%) n (%)
same,Patients with TEAE: Nausea,[4]; in vivo,5 (1.7%) n (%)
same,Patients with TEAE: Nervous system disorders (SOC),[4]; in vivo,22 (7.3%) n (%)
same,Patients with TEAE: Upper respiratory tract infection,[4]; in vivo,5 (1.7%) n (%)
same,Patients with TEAE: Vomiting,[4]; in vivo,5 (1.7%) n (%)
same,Patients with any TEAE,[4]; in vivo,222 (73.8%) n (%)
same,Patients with any TEAE leading to permanent treatment discontinuation,[4]; in vivo,2 (0.7%) n (%)
same,Patients with any treatment emergent SAE,[4]; in vivo,11 (3.7%) n (%)
same,"Patients with events adjudicated as allergic reaction by ARAC: All, Any category, Any event",[4]; in vivo,0 n (%)
same,"Patients with events adjudicated as allergic reaction by ARAC: OTHER ALLERGIC REACTION, Rhinitis allergic",[4]; in vivo,0 n (%)
same,"Patients with events adjudicated as allergic reaction by ARAC: Possibly Related to IMP, Any event",[4]; in vivo,0 n (%)
same,"Patients with events adjudicated as allergic reaction by ARAC: URTICARIA (HIVES), Urticaria",[4]; in vivo,0 n (%)
same,Patients with treatment emergent SAE: Abdominal pain,[4]; in vivo,0 n (%)
same,Patients with treatment emergent SAE: Angina pectoris,[4]; in vivo,0 n (%)
same,Patients with treatment emergent SAE: Angina unstable,[4]; in vivo,1 (0.3%) n (%)
same,Patients with treatment emergent SAE: Ankle fracture,[4]; in vivo,1 (0.3%) n (%)
same,Patients with treatment emergent SAE: Any class,[4]; in vivo,11 (3.7%) n (%)
same,Patients with treatment emergent SAE: Atrial fibrillation,[4]; in vivo,1 (0.3%) n (%)
same,Patients with treatment emergent SAE: Atrioventricular block complete,[4]; in vivo,0 n (%)
same,Patients with treatment emergent SAE: Basal cell carcinoma,[4]; in vivo,0 n (%)
same,Patients with treatment emergent SAE: Cardiac disorders (SOC),[4]; in vivo,3 (1.0%) n (%)
same,Patients with treatment emergent SAE: Cardiac failure chronic,[4]; in vivo,0 n (%)
same,Patients with treatment emergent SAE: Cardiac failure congestive,[4]; in vivo,0 n (%)
same,Patients with treatment emergent SAE: Cellulitis,[4]; in vivo,1 (0.3%) n (%)

# Reference: patent US10434147B2, “Treatment type 2 diabetes mellitus patients” (Sanofi-Aventis Deutschland GmbH, priority 2015, dated 2019)
